# Literature values as cited in PMC4963854, “Mapping Protein–Protein Interactions of the Resistance-Related Bacterial Zeta Toxin–Epsilon Antitoxin Complex (ε2ζ2) with High Affinity Peptide Ligands Using Fluorescence Polarization” (Toxins, 2016).
# Target: Zeta toxin (Streptococcus pyogenes) (UniProt Q54944)
# Sequence (Q54944 2-287): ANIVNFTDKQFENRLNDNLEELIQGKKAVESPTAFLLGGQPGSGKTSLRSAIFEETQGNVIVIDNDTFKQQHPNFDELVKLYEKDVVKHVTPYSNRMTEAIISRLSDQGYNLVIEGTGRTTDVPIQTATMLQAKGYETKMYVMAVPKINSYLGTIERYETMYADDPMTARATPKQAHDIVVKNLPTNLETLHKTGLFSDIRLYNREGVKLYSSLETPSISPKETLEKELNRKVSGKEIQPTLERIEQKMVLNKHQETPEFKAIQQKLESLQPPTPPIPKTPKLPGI
# Sequence of Epsilon antitoxin (Q57231 2-90): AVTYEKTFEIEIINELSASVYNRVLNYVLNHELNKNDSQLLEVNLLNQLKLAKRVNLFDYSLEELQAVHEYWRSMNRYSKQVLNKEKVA
substance,measurement,value
Epsilon antitoxin (from UniProt Q57231),Kd,1000 nM
